Here are results for 41 variants from the RNAGym collection of RNA variant scans (doi:10.7554/elife.90254).

Sequences and labels used below:
B1: OR4K15 (parent)
chain: GUUAACGGUCAUAGGCCAUGGAAACUAGGAGCACCAUUUCGCUGCCAGUGAAGAAAUGAACAAAGAAAAUCUGGGCCAGGCAGGCAUCAAAAGAAAUAGUCUUGCGCUCAACCAGAAAGUCUGUAAUCAUUUUAAGGGUA

In this data set the parent is B1. Nature of the data set: self-cleavage, relative activity (ratio to wild type); higher = more cleavage; in vitro, sequencing; the parent is a self-cleaving ribozyme.
For GUUAACGGUCAUAGGCCAUGGAAACUAGGAGCACCAUUUCGCUGCCAGUGAAGAAAUGAACAAAGAAAAUCUGGGCCAGGCAGGCAUCAAAAGAAAUAGUCUUGCGCUCAACCAGAAGGUCUGUAAUCAUCUUAAGGGUA, the self-cleavage was 0.63.
Then GUUAACGGUCAUAGGCCAUGGAAACUAGGAGCACCAUUUCGCUGCCAGUGAAGAAAUGAACAAAGAAAAUCUGGGCCAGGCAGGCAUCAAAAGAAAUAGUCUUGCGCUCAACCAGAGAGUCUGUAAUCAUUUUAAGGGAA, with 1.85; and GUUAACGGUCAUAGGCCAUGGAAACUAGGAGCACCAUUUCGCUGCCAGUGAAGAAAUGAACAAAGAAAAUCUGGGCCAGGCAGGCAUCAAAAGAAAUAGUCUUGCGCUCAACCAGAGAGUCUGUAAUCAUUUUAAGGGCA, with 1.34; and GUUAACGGUCAUAGGCCAUGGAAACUAGGAGCACCAUUUCGCUGCCAGUGAAGAAAUGAACAAAGAAAAUCUGGGCCAGGCAGGCAUCAAAAGAAAUAGUCUUGCGCUCAACCAGAAGGUCUGUAAUCAUUUUAAGGGUA, with 0.89.
Regarding GUUAACGGUCAUAGGCCAUGGAAACUAGGAGCACCAUUUCGCUGCCAGUGAAGAAAUGAACAAAGAAAAUCUGGGCCAGGCAGGCAUCAAAAGAAAUAGUCUUGCGCUCAACCAGAACGUCUGUAAUCAUUUUAAGGGUA, the self-cleavage stood at 0.97.
Then GUUAACGGUCAUAGGCCAUGGAAACUAGGAGCACCAUUUCGCUGCCAGUGAAGAAAUGAACAAAGAAAAUCUGGGCCAGGCAGGCAUCAAAAGAAAUAGUCUUGCGCUCAACCAGAUAGUCUGUAAUCAUUUUAAGGGUA, with 0.59; and GUUAACGGUCAUAGGCCAUGGAAACUAGGAGCACCAUUUCGCUGCCAGUGAAGAAAUGAACAAAGAAAAUCUGGGCCAGGCAGGCAUCAAAAGAAAUAGUCUUGCGCUCAACCAGAAGGUCCGUAAUCAUUUUAAGGGUA, with 1.04.
Take GUUAACGGUCAUAGGCCAUGGAAACUAGGAGCACCAUUUCGCUGCCAGUGAAGAAAUGAACAAAGAAAAUCUGGGCCAGGCAGGCAUCAAAAGAAAUAGUCUUGCGCUCAACCAGAGAGUCUGUAAUCAUUUCAAGGGUA: the self-cleavage amounted to 1.85.
Regarding GUUAACGGUCAUAGGCCAUGGAAACUAGGAGCACCAUUUCGCUGCCAGUGAAGAAAUGAACAAAGAAAAUCUGGGCCAGGCAGGCAUCAAAAGAAAUAGUCUUGCGCUCAACCAGAAGGUCUGUAAUCAUUUUAAGGGUC, the self-cleavage was 1.36.
Turning to GUUAACGGUCAUAGGCCAUGGAAACUAGGAGCACCAUUUCGCUGCCAGUGAAGAAAUGAACAAAGAAAAUCUGGGCCAGGCAGGCAUCAAAAGAAAUAGUCUUGCGCUCAACCAGAAGGUUUGUAAUCAUUUUAAGGGUA, the self-cleavage came out at 1.94.
Then GUUAACGGUCAUAGGCCAUGGAAACUAGGAGCACCAUUUCGCUGCCAGUGAAGAAAUGAACAAAGAAAAUCUGGGCCAGGCAGGCAUCAAAAGAAAUAGUCUUGCGCUCAACCAGAAGGUAUGUAAUCAUUUUAAGGGUA, with 2.97.
For the variant GUUAACGGUCAUAGGCCAUGGAAACUAGGAGCACCAUUUCGCUGCCAGUGAAGAAAUGAACAAAGAAAAUCUGGGCCAGGCAGGCAUCAAAAGAAAUAGUCUUGCGCUCAACCAGAUAGUCUGUAAUCAUUCUAAGGGUA, the self-cleavage is 0.88.
For GUUAACGGUCAUAGGCCAUGGAAACUAGGAGCACCAUUUCGCUGCCAGUGAAGAAAUGAACAAAGAAAAUCUGGGCCAGGCAGGCAUCAAAAGAAAUAGUCUUGCGCUCAACCAGAGAGUCAGUAAUCAUUUUAAGGGUA, the self-cleavage worked out at 2.35.
The value for GUUAACGGUCAUAGGCCAUGGAAACUAGGAGCACCAUUUCGCUGCCAGUGAAGAAAUGAACAAAGAAAAUCUGGGCCAGGCAGGCAUCAAAAGAAAUAGUCUUGCGCUCAACCAGAUAGUCUGUAACCAUUUUAAGGGUA was 0.61; that for GUUAACGGUCAUAGGCCAUGGAAACUAGGAGCACCAUUUCGCUGCCAGUGAAGAAAUGAACAAAGAAAAUCUGGGCCAGGCAGGCAUCAAAAGAAAUAGUCUUGCGCUCAACCAGAUAGCCUGUAAUCAUUUUAAGGGUA was 0.83.
Turning to GUUAACGGUCAUAGGCCAUGGAAACUAGGAGCACCAUUUCGCUGCCAGUGAAGAAAUGAACAAAGAAAAUCUGGGCCAGGCAGGCAUCAAAAGAAAUAGUCUUGCGCUCAACCAGAGAGUCUGUAACCAUUUUAAGGGUA, the self-cleavage amounted to 0.77.
As for GUUAACGGUCAUAGGCCAUGGAAACUAGGAGCACCAUUUCGCUGCCAGUGAAGAAAUGAACAAAGAAAAUCUGGGCCAGGCAGGCAUCAAAAGAAAUAGUCUUGCGCUCAACCAGAACGUCAGUAAUCAUUUUAAGGGUA, the self-cleavage was 1.12.
With GUUAACGGUCAUAGGCCAUGGAAACUAGGAGCACCAUUUCGCUGCCAGUGAAGAAAUGAACAAAGAAAAUCUGGGCCAGGCAGGCAUCAAAAGAAAUAGUCUUGCGCUCAACCAGAGAGUCUGUAAUCAUUCUAAGGGUA, the self-cleavage is 1.85.
GUUAACGGUCAUAGGCCAUGGAAACUAGGAGCACCAUUUCGCUGCCAGUGAAGAAAUGAACAAAGAAAAUCUGGGCCAGGCAGGCAUCAAAAGAAAUAGUCUUGCGCUCAACCAGAGAGUCUGUAAUCAUUAUAAGGGUA: the self-cleavage was 1.62.
Then GUUAACGGUCAUAGGCCAUGGAAACUAGGAGCACCAUUUCGCUGCCAGUGAAGAAAUGAACAAAGAAAAUCUGGGCCAGGCAGGCAUCAAAAGAAAUAGUCUUGCGCUCAACCAGAAGGUCUGUAAUUAUUUUAAGGGUA, with 0.61.
The value for GUUAACGGUCAUAGGCCAUGGAAACUAGGAGCACCAUUUCGCUGCCAGUGAAGAAAUGAACAAAGAAAAUCUGGGCCAGGCAGGCAUCAAAAGAAAUAGUCUUGCGCUCAACCAGAUAGUCUGAAAUCAUUUUAAGGGUA was 0.27; that for GUUAACGGUCAUAGGCCAUGGAAACUAGGAGCACCAUUUCGCUGCCAGUGAAGAAAUGAACAAAGAAAAUCUGGGCCAGGCAGGCAUCAAAAGAAAUAGUCUUGCGCUCAACCAGAAGGCCUGUAAUCAUUUUAAGGGUA was 0.44; that for GUUAACGGUCAUAGGCCAUGGAAACUAGGAGCACCAUUUCGCUGCCAGUGAAGAAAUGAACAAAGAAAAUCUGGGCCAGGCAGGCAUCAAAAGAAAUAGUCUUGCGCUCAACCAGAACGUCUGUAAUCAUUUUAAGGGAA was 1.24.
As for GUUAACGGUCAUAGGCCAUGGAAACUAGGAGCACCAUUUCGCUGCCAGUGAAGAAAUGAACAAAGAAAAUCUGGGCCAGGCAGGCAUCAAAAGAAAUAGUCUUGCGCUCAACCAGAAGGUCUGUAAUCAUUUUAAGGAUA, the self-cleavage came out at 1.14.
As to GUUAACGGUCAUAGGCCAUGGAAACUAGGAGCACCAUUUCGCUGCCAGUGAAGAAAUGAACAAAGAAAAUCUGGGCCAGGCAGGCAUCAAAAGAAAUAGUCUUGCGCUCAACCAGAAGGUCUGUAUUCAUUUUAAGGGUA, the self-cleavage turned out to be 1.22.
The value for GUUAACGGUCAUAGGCCAUGGAAACUAGGAGCACCAUUUCGCUGCCAGUGAAGAAAUGAACAAAGAAAAUCUGGGCCAGGCAGGCAUCAAAAGAAAUAGUCUUGCGCUCAACCAGAAGGUCUGUACUCAUUUUAAGGGUA was 0.84; that for GUUAACGGUCAUAGGCCAUGGAAACUAGGAGCACCAUUUCGCUGCCAGUGAAGAAAUGAACAAAGAAAAUCUGGGCCAGGCAGGCAUCAAAAGAAAUAGUCUUGCGCUCAACCAGAAGGUCUGUAACCAUUUUAAGGGUA was 0.24.
The value for GUUAACGGUCAUAGGCCAUGGAAACUAGGAGCACCAUUUCGCUGCCAGUGAAGAAAUGAACAAAGAAAAUCUGGGCCAGGCAGGCAUCAAAAGAAAUAGUCUUGCGCUCAACCAGAAGGUCUGUAAACAUUUUAAGGGUA was 1.26.
As to GUUAACGGUCAUAGGCCAUGGAAACUAGGAGCACCAUUUCGCUGCCAGUGAAGAAAUGAACAAAGAAAAUCUGGGCCAGGCAGGCAUCAAAAGAAAUAGUCUUGCGCUCAACCAGAAGGUCUGUAAUCAUUCUAAGGGUA, the self-cleavage was 0.18.
For the variant GUUAACGGUCAUAGGCCAUGGAAACUAGGAGCACCAUUUCGCUGCCAGUGAAGAAAUGAACAAAGAAAAUCUGGGCCAGGCAGGCAUCAAAAGAAAUAGUCUUGCGCUCAACCAGAAGGUCUGUAAUCAUUAUAAGGGUA, the self-cleavage amounted to 1.11.
Then GUUAACGGUCAUAGGCCAUGGAAACUAGGAGCACCAUUUCGCUGCCAGUGAAGAAAUGAACAAAGAAAAUCUGGGCCAGGCAGGCAUCAAAAGAAAUAGUCUUGCGCUCAACCAGAUAGUCUGUAAUCAUUUUAAGGGCA, with 1.57.
As to GUUAACGGUCAUAGGCCAUGGAAACUAGGAGCACCAUUUCGCUGCCAGUGAAGAAAUGAACAAAGAAAAUCUGGGCCAGGCAGGCAUCAAAAGAAAUAGUCUUGCGCUCAACCAGAAGGUCUGUAAUCAUUUAAAGGGUA, the self-cleavage was determined as 1.28.
Then GUUAACGGUCAUAGGCCAUGGAAACUAGGAGCACCAUUUCGCUGCCAGUGAAGAAAUGAACAAAGAAAAUCUGGGCCAGGCAGGCAUCAAAAGAAAUAGUCUUGCGCUCAACCAGAAGGUCUAUAAUCAUUUUAAGGGUA, with 0.58; and GUUAACGGUCAUAGGCCAUGGAAACUAGGAGCACCAUUUCGCUGCCAGUGAAGAAAUGAACAAAGAAAAUCUGGGCCAGGCAGGCAUCAAAAGAAAUAGUCUUGCGCUCAACCAGAAGGUCUGUAAUCACUUUAAGGGUA, with 0.73.
Turning to GUUAACGGUCAUAGGCCAUGGAAACUAGGAGCACCAUUUCGCUGCCAGUGAAGAAAUGAACAAAGAAAAUCUGGGCCAGGCAGGCAUCAAAAGAAAUAGUCUUGCGCUCAACCAGAAGGUCUGCAAUCAUUUUAAGGGUA, the self-cleavage came to 1.37.
Then GUUAACGGUCAUAGGCCAUGGAAACUAGGAGCACCAUUUCGCUGCCAGUGAAGAAAUGAACAAAGAAAAUCUGGGCCAGGCAGGCAUCAAAAGAAAUAGUCUUGCGCUCAACCAGAUAGUCCGUAAUCAUUUUAAGGGUA, with 1.24; and GUUAACGGUCAUAGGCCAUGGAAACUAGGAGCACCAUUUCGCUGCCAGUGAAGAAAUGAACAAAGAAAAUCUGGGCCAGGCAGGCAUCAAAAGAAAUAGUCUUGCGCUCAACCAGAUAGUCUGUAAUCGUUUUAAGGGUA, with 0.47; and GUUAACGGUCAUAGGCCAUGGAAACUAGGAGCACCAUUUCGCUGCCAGUGAAGAAAUGAACAAAGAAAAUCUGGGCCAGGCAGGCAUCAAAAGAAAUAGUCUUGCGCUCAACCAGAAGGUCUGUAAUCAUUUUAGGGGUA, with 1.15.
The value for GUUAACGGUCAUAGGCCAUGGAAACUAGGAGCACCAUUUCGCUGCCAGUGAAGAAAUGAACAAAGAAAAUCUGGGCCAGGCAGGCAUCAAAAGAAAUAGUCUUGCGCUCAACCAGAAGGUCUGUAAUCAUUUUGAGGGUA was 0.71; that for GUUAACGGUCAUAGGCCAUGGAAACUAGGAGCACCAUUUCGCUGCCAGUGAAGAAAUGAACAAAGAAAAUCUGGGCCAGGCAGGCAUCAAAAGAAAUAGUCUUGCGCUCAACCAGAAGGUCUGUAAUCUUUUUAAGGGUA was 0.61.
The value for GUUAACGGUCAUAGGCCAUGGAAACUAGGAGCACCAUUUCGCUGCCAGUGAAGAAAUGAACAAAGAAAAUCUGGGCCAGGCAGGCAUCAAAAGAAAUAGUCUUGCGCUCAACCAGAAGGUCUGUAAUCGUUUUAAGGGUA was 0.29.
